First the molecules themselves.
B1: Protein phosphatase Slingshot homolog 1 (Homo sapiens), Q8WYL5 (parent)
chain: MALVTLQRSPTPSAASSSASNSELEAGSEEDRKLNLSLSESFFMVKGAALFLQQGSSPQGQRSLQHPHKHAGDLPQHLQVMINLLRCEDRIKLAVRLESAWADRVRYMVVVYSSGRQDTEENILLGVDFSSKESKSCTIGMVLRLWSDTKIHLDGDGGFSVSTAGRMHIFKPVSVQAMWSALQVLHKACEVARRHNYFPGGVALIWATYYESCISSEQSCINEWNAMQDLESTRPDSPALFVDKPTEGERTERLIKAKLRSIMMSQDLENVTSKEIRNELEKQMNCNLKELKEFIDNEMLLILGQMDKPSLIFDHLYLGSEWNASNLEELQGSGVDYILNVTREIDNFFPGLFAYHNIRVYDEETTDLLAHWNEAYHFINKAKRNHSKCLVHCKMGVSRSASTVIAYAMKEFGWPLEKAYNYVKQKRSITRPNAGFMRQLSEYEGILDASKQRHNKLWRQQTDSSLQQPVDDPAGPGDFLPETPDGTPESQLPFLDDAAQPGLGPPLPCCFRRLSDPLLPSPEDETGSLVHLEDPEREALLEEAAPPAEVHRPARQPQQGSGLCEKDVKKKLEFGSPKGRSGSLLQVEETEREEGLGAGRWGQLPTQLDQNLLNSENLNNNSKRSCPNGMEDDAIFGILNKVKPSYKSCADCMYPTASGAPEASRERCEDPNAPAICTQPAFLPHITSSPVAHLASRSRVPEKPASGPTEPPPFLPPAGSRRADTSGPGAGAALEPPASLLEPSRETPKVLPKSLLLKNSHCDKNPPSTEVVIKEESSPKKDMKPAKDLRLLFSNESEKPTTNSYLMQHQESIIQLQKAGLVRKHTKELERLKSVPADPAPPSRDGPASRLEASIPEESQDPAALHELGPLVMPSQAGSDEKSEAAPASLEGGSLKSPPPFFYRLDHTSSFSKDFLKTICYTPTSSSMSSNLTRSSSSDSIHSVRGKPGLVKQRTQEIETRLRLAGLTVSSPLKRSHSLAKLGSLTFSTEDLSSEADPSTVADSQDTTLSESSFLHEPQGTPRDPAATSKPSGKPAPENLKSPSWMSKS

The values below come from IntAct's records for PubMed 21525957.

The variants in the first assay derive from B1. As to conditions: with cof1_human CFL1, P23528.
cof1_human CFL1, P23528, sequence (P23528 whole entry): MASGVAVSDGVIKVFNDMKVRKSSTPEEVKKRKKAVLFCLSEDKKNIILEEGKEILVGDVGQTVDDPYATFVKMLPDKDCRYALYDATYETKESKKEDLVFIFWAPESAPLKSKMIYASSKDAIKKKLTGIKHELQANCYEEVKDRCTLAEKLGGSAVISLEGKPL
With S402E, the “effect of a mutation on the interaction” value is “disrupting interaction”.

A further assay covers variants of B1. As to conditions: with cof1_human CFL1, P23528. This is another data set of the same source.
As for S402D, the “effect of a mutation on the interaction” value is on record as “disrupting interaction”.
